The record followed here is paper PMC9440244, “Structures and implications of the nuclease domain of human parvovirus B19 NS1 protein”.

The target in this data set is NS1_Nuc WT (nuclease domain of NS1) (human parvovirus B19 (variant …, UniProt A0A097C0M3 2-176)). In words: EMSA; 1 mM EDTA. The settings on record: protein: recombinant, tags: His-SUMO removed by ULP1.

B1: 67-ori-top (ssDNA)
DNA: AAAATTTAAAAGAAGACACCAAATCAGATGCCGCCGGTCGCCGCCGGTAGGCGGGACTTCCGGTACA
As a reminder, the Kd is the concentration at which binding is half-saturated. As for B1, the Kd (label: 5'-FAM, single strand) was 12.3 µM.

B2: 67-ori-top/40-ori-bot (mixed)
DNA 1: B1 DNA
DNA 2: TGTACCGGAAGTCCCGCCTACCGGCGGCGACCGGCGGCAT
B2: where the note is “label: 5'-FAM on 67-ori-top, partial duplex over NSBE1-NSBE4, top strand single-stranded elsewhere”, the equilibrium dissociation constant (Kd) is around 1 µM.
